Molecular target: T1, porcine CD163 with deletion of SRCR domain 5, on pPAMΔ5 cells (porcine, UniProt Q2VL90 47-1115)
T1 construct: also called pPAMΔ5 domain cells; pPAMΔ5 WT cells
T1 sequence: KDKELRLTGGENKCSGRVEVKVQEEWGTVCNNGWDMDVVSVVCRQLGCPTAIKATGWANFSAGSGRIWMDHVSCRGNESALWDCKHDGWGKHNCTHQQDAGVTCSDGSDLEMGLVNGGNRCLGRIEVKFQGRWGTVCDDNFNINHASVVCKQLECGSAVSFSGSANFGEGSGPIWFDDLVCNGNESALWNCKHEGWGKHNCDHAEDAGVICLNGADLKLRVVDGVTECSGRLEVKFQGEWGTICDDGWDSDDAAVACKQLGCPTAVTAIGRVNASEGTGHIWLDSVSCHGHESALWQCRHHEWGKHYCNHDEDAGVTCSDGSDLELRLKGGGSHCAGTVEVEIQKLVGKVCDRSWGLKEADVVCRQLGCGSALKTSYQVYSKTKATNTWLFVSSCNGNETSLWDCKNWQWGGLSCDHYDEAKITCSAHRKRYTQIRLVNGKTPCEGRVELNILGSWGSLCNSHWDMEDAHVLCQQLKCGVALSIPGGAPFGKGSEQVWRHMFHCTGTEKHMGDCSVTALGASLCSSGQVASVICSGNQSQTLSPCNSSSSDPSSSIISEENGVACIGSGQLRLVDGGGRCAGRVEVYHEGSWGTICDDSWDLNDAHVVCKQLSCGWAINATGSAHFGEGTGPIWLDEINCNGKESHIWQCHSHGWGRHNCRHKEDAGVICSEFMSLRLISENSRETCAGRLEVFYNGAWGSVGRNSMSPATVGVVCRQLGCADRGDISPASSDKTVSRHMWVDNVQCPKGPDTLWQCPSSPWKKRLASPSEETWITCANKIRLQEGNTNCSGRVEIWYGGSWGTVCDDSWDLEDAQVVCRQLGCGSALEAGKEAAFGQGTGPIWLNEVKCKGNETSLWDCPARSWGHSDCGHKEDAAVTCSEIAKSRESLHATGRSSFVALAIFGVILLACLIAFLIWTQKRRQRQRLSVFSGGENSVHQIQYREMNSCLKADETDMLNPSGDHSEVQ
Assay: P.E. binding FACS on pPAMΔ5 cells
Description: Periplasmic Extract (P.E) from the selected clones were incubated with anti-c-myc antibody (Roche; Cat. nr. 11667203001), specific to the c-myc tag present in the soluble VHH, for 30 minutes with agitation at room temperature (RT). The mix (P.E+anti-c-myc antibody) was added to the pPAM WT or pPAMΔ5 domain (cells with deletion of SRCR domain 5) and incubated for 60 min at 4° C. with gentle shaking.
Cells were washed 3× with 150 μl/well of FACS Buffer and incubated with 50 μl/well of the secondary antibody GAM-APC for 30 min at 4° C. and protected from the light, with shaking.

B1: Clone 39-H17B11 VHH antibody (VHH)
VHH: QVQLVESGGGLVQAGGSLRLSCAASGRTFSSYAMGWFRQTPGKDREFVARIGWTGGTTIYADSVKGRFTISRDNAKNTVYLQMNSLKPEDTAVYYCAADQAGWRTAGVRNTYEYDYWGQGTQVTVSS
notes: Llama single domain antibody; also called clone 17B11; not shown: tags: c-myc tag on the soluble VHH in periplasmic extracts; FLAG and His tags on the purified VHH
B1: no binding.

From patent US20260085129A1 (ECO ANIMAL HEALTH, published 2026)
